Assay results as given in patent US8030043B2, “β-galactoside-α2,3-sialyltransferase, a gene encoding thereof, and a method for producing thereof” (Japan Tobacco Inc., priority 2005, dated 2011).

B1: ISH224-N1C0 first clone: JT-ISH-224 sialyltransferase lacking signal peptide region, nucleotides 73 to 1230 of SEQ ID NO: 28 (protein, listed as Photobacterium sp.)
chain: MLVFCKKMFFSVFISLMILGGCNSDSNHNNSDGNITKNKTIEVYVDRATLPTIQQMTQIINENSNNKKLISWSRYPINDEELLESINGSFFKNNSELIKSLDSMILTNDIKKVIINGNTLWAADVVNIIKSIEAFGKKTEIELNFYDDGSAEYVRLYDFSKLPESEQEYKISLSKDNILSSINGTQPFENVVENIYGFSQLYPTTYHMLRADIFETNLPLRSLKGVLSNNIKQMKWDYFKTFNSQQKDKFYNFTGFNPDEIMEQYKASPNKNFIFVGTNSGTATAEQQIDILTEAKNPNSPIITKSIQGFDLFFKGHPSATYNKQIIDAHNMIEIYNKIPFEALIMTDALPDAVGGMGSSVFFSLPNTVENKFIFYKSDTDIENNALIQVMIELNIVNRNDVKLISDLQ
modifications: CDS (1)..(1230) /gene=“224-23ST” /product=“Beta-galactoside-alpha-2,3-sialyltransferase”
B2: ISH467-N2C0 third clone: JT-ISH-467 sialyltransferase lacking signal peptide region, nucleotides 73 to 1230 of SEQ ID NO: 1, no mutation (protein, listed as Photobacterium phosphoreum)
chain: MFVFCKKIFFLIFISLMILGGCNSDSKHNNSDGNITKNKTIEVYVDRATLPTIQQMTQIINENSNNKKLISWSRYPINDETLLESINGSFFKNRPELIKSLDSMILTNEIKKVIINGNTLWAVDVVNIIKSIEALGKKTEIELNFYDDGSAEYVRLYDFSRLPESEQEYKISLSKDNIQSSINGTQPFDNSIENIYGFSQLYPTTYHMLRADIFETNLPLTSLKRVISNNIKQMKWDYFTTFNSQQKNKFYNFTGFNPEKIKEQYKASPHENFIFIGTNSGTATAEQQIDILTEAKKPDSPIITNSIQGLDLFFKGHPSATYNQQIIDAHNMIEIYNKIPFEALIMTDALPDAVGGMGSSVFFSLPNTVENKFIFYKSDTDIENNALIQVMIELNIVNRNDVKLISDLQ
modifications: CDS (1)..(1230) /gene=“467-23ST” /product=“Beta-galactoside- alpha 2,3-sialyltransferase”
B3: FAJ-N1C0 first clone: JT-FAJ-16 sialyltransferase lacking signal peptide region, nucleotides 67 to 1209 of SEQ ID NO: 30 (protein, listed as Vibrio sp.)
chain: MKNIITKRMLIILSSLFTIIGCNNDNSTTTNNNAIEIYVDRATLPTIQQMTKIVSQKTSNKKLISWSRYPITDKSLLKKINAEFFKEQFELTESLKNIILSENIDNLIIHGNTLWSIDVVDIIKEVNLLGKNIPIELHFYDDGSAEYVRIYEFSKLPESEQKYKTSLSKNNIKFSIDGTDSFKNTIENIYGFSQLYPTTYHMLRADIFDTTLKINPLRELLSNNIKQMKWDYFKDFNYKQKDIFYSLTNFNPKEIQEDFNKNSNKNFIFIGSNSATATAEEQINIISEAKKENSSIITNSISDYDLFFKGHPSATFNEQIINAHDMIEINNKIPFEALIMTGILPDAVGGMGSSVFFSIPKEVKNKFVFYKSGTDIENNSLIQVMLKLNLINRDNIKLISDI
modifications: CDS (1)..(1209) /gene=“FAJ16-23ST” /product=“Beta-galactoside- alpha 2,3-sialyltransferase”

Key:
[1] = Sialyltransferase activity in E. coli homogenate (crude enzyme solution), transfer of 14C-NeuAc from CMP-NeuAc to lactose; assay type: biochemical; details: lactose acceptor; for Radioactivity (cpm) Average: average of duplicate; for Sialyltransferase activity in crude enzyme solution (in words): CMP-14C-NeuAc donor
Description: Sialyltransferase activity was measured as described in J. Biochem., 120, pp. 104-110 (1996) (which is hereby incorporated by reference in its entirety). More specifically, the enzymatic reaction was accomplished by using CMP-NeuAc (70 nmol, containing 25000 cpm CMP-NeuAc in which NeuAc was labeled with ^14C, 356 cpm/nmol; NeuAc represents N-acetylneuraminic acid) as a glycosyl donor substrate, lactose (1.25 μmol) as a glycosyl acceptor substrate, NaCl added to give a concentration of 0.5 M, and the enzyme-containing reaction solution (30 μl) prepared as described above. The enzymatic reaction was carried out at 25° C. for 10 to 30 minutes. After completion of the reaction, 1.97 ml of 5 mM phosphate buffer (pH 6.8) was added to the reaction solution, which was then applied to a Dowex 1×8 (PO4^3− form, 0.2×2 cm, BIO-RAD) column. The radioactivity was measured for the reaction product, i.e., sialyllactose contained in the eluate (0 to 2 ml) from this column to calculate the enzyme activity.
An induction experiment of protein expression was performed on the two 467-N0C0 clones and the three 467-N2C0 clones obtained in (4) above. A single colony of E. coli TB1 having the expression vector pTrc99A carrying each clone was inoculated into LB medium (5 ml) containing an antibiotic, ampicillin (final concentration 100 μg/mL), and pre-cultured at 30° C. to about A600=0.5, followed by addition of IPTG (isopropyl-β-D(−)-thiogalactopyranoside, Wako Pure Chemical Industries, Ltd. Japan) at a final concentration of 1 mM. After culturing with shaking at 30° C. for an additional 4 hours, the cells in 2 ml culture solution were collected by centrifugation. These cells were suspended in 200 μl of 20 mM BisTris buffer (pH 7.0) containing 0.336% Triton X-100 and 0.5 M sodium chloride, and ultrasonically homogenized under ice cooling. The resulting homogenate was defined as a crude enzyme solution and provided for activity measurement. The reaction was carried out in duplicate, and the reaction composition was the same as shown in Example 1, except that the reaction time was set to 15 hours.
In the same manner as shown in Example 5(5), an induction experiment of protein expression was performed on 2 clones, i.e., the first clone of ISH224-N0C0 and the first clone of ISH224-N1C0 to measure their enzyme activity.
In the same manner as shown in Example 5(5), an induction experiment of protein expression was performed on 3 clones, i.e., the first clone of FAJ-N0C0 as well as the first and second clones of FAJ-N1C0 to measure their enzyme activity.

asialofetuin = experiment: Sialic acid transfer to glycoprotein (asialofetuin), gel filtration and scintillation counting; assay type: biochemical; details: asialofetuin acceptor; CMP-14C-NeuAc 22.8 nmol (about 19,000 cpm); enzyme 10 mU; 25° C., 2 hours
Description: Cell homogenates prepared from E. coli cells introduced with the third clone of ISH467-N2C0, the first clone of ISH224-N1C0 and the first clone of FAJ-N1C0 were each purified by ion exchange chromatography and hydroxyapatite chromatography to give an electrophoretically single band. The thus purified β-galactoside-α2,3-sialyltransferases were used in the following experiment in order to examine the presence or absence of sialyltransferase activity toward glycoproteins.
As a glycosyl acceptor substrate, asialofetuin was used. Asialofetuin (2 mg) was dissolved in 1 ml of 20 mM Bis-tris buffer (pH 6.0) and used as a glycosyl acceptor substrate solution. As a glycosyl donor substrate, CMP-^14C-NeuAc-containing CMP-NeuAc was used. The glycosyl acceptor substrate solution (40 μl), the glycosyl donor substrate (5 μl, 22.8 nmol (about 19,000 cpm)) and any of the enzyme solutions (5 μl, 10 mU each) were mixed and incubated at 25° C. for 2 hours to cause sialic acid transfer reaction. After completion of the reaction, the reaction solution was gel-filtered by being applied to a Sephadex G-50 Superfine (0.8×18.0 cm) equilibrated with 0.1 M sodium chloride. A glycoprotein-containing eluate fraction (2-4 ml fraction) from gel filtration was collected and measured for its radioactivity using a liquid scintillation counter to quantify sialic acid transferred to the glycosyl acceptor substrate.

[2] = JT-ISH-224 gene clones, as Example 5(5)
[3] = JT-ISH-467 gene clones, 25° C., reaction time 15 hours
[4] = JT-FAJ-16 gene clones, as Example 5(5)

Molecule | Radioactivity (cpm) Round 1 [1, 2] [cpm] | Radioactivity (cpm) Round 2 [1, 2] [cpm] | Radioactivity (cpm) Average [1, 2] [cpm] | Sialyltransferase activity in crude enzyme solution (in words) [1] | Radioactivity (cpm) (asialofetuin) | Radioactivity (cpm) Round 1 [1, 3] [cpm] | Radioactivity (cpm) Round 2 [1, 3] [cpm] | Radioactivity (cpm) Average [1, 3] [cpm] | Radioactivity (cpm) Round 1 [1, 4] [cpm] | Radioactivity (cpm) Round 2 [1, 4] [cpm] | Radioactivity (cpm) Average [1, 4] [cpm]
B1 | 9330 | 9415 | 9672.5 | sialyltransferase activity was observed | 3301 |  |  |  |  |  | 
B2 |  |  |  | sialyltransferase activity was also observed | 1729 | 8547 | 8481 | 8514 |  |  | 
B3 |  |  |  | sialyltransferase activity was observed | 2865 |  |  |  | 5664 | 6724 | 6194
